Molecular target: beta-klotho
Test: cell-based or functional assay

Substance | EC50 (ELK-luciferase assay) | Efficacy (ELK-luciferase assay)
MKEDD.hFGF21.L15.hFc (Fc fusion) | 834 nM | 83.1%
hFc.L15.hFGF21(1-178, L98R, P171G) (Fc fusion) | 167 nM | 63.9%
hFc.L15.hFGF21(L98R, P171G) (Fc fusion) | 2.5 nM | 76.1%
hFc.L15.hFGF21(L98R, P171G, 1-179) (Fc fusion) | 7.8 nM | 77.4%
hFc.L15.hFGF21(L98R, P171G, A180E) (Fc fusion) | 1.9 nM | 79.6%
hFc.L15.hFGF21(L98R, P171G, A180G) (Fc fusion) | 3.25 nM | 76.9%
hFc.L15.hFGF21(L98R, P171G, A180P) (Fc fusion) | 617 nM | 77.1%
hFc.L15.hFGF21(L98R, P171G, A180S) (Fc fusion) | 2.18 nM | 84.7%
hFc.L15.hFGF21(L98R, P171G, G182) (Fc fusion) | 6.5 nM | 71.1%
hFc.L15.hFGF21(L98R, P171G, GG182-3) (Fc fusion) | 1940 nM | 84.2%
hFc.L15.hFGF21(L98R, P171G, GGGGG182-6) (Fc fusion) | 4310 nM | 99.7%
hFc.L15.hFGF21(L98R, P171G, P182) (Fc fusion) | 6.1 nM | 85.9%
hFc.L15.hFGF21(L98R, P171G, S181A) (Fc fusion) | 2.66 nM | 73.5%
hFc.L15.hFGF21(L98R, P171G, S181G) (Fc fusion) | 3.43 nM | 77.3%
hFc.L15.hFGF21(L98R, P171G, S181K) (Fc fusion) | 130 nM | 87.9%
hFc.L15.hFGF21(L98R, P171G, S181L) (Fc fusion) | 3.46 nM | 72.6%
hFc.L15.hFGF21(L98R, P171G, S181P) (Fc fusion) | 33.8 nM | 79.5%
hFc.L15.hFGF21(L98R, P171G, S181P, P182) (Fc fusion) | 272 nM | 69.9%
hFc.L15.hFGF21(L98R, P171G, S181T) (Fc fusion) | 3.07 nM | 77.6%
hFc.L15.hFGF21(L98R, P171G, Y179A) (Fc fusion) | 43.2 nM | 79.6%
hFc.L15.hFGF21(L98R, P171G, Y179F) (Fc fusion) | 2.6 nM | 78.3%
hFc.L15.hFGF21(L98R, P171G, Y179G) (Fc fusion) | 61 nM | 82.6%
hFc.L15.hFGF21(L98R, P171G, Y179P) (Fc fusion) | 428 nM | 44.4%
hFc.L15.hFGF21(L98R, P171G, Y179S) (Fc fusion) | 25.3 nM | 74.8%
